Source: US11180762B2, “Methods and compositions for the treatment of cancer” (CHILDREN'S MEDICAL CENTER CORPORATION, priority 2014, dated 2021)
“Also recorded” adds a separate entry of the source.

What was measured:
[1] = tested on: eGFP expression in BPLER and BPE cells; experiment: eGFP knockdown in GFP-expressing BPLER and BPE cells; assay type: cell-based, human; settings: AsiC 4 μM without lipid; siRNA 100 nM with Dharmafect; 72 hours
Experimental: FIG. 21A depicts the design of EpCAM-AsiC, containing an EpCAM aptamer and a PLK1 siRNA (sense strand disclosed as SEQ ID NO: 1 and antisense strand disclosed as SEQ ID NO: 2). […] EpCAM-AsiC targeting GFP was Alexa647 or Cy3 labeled at the 3′ end of the antisense siRNA strand and incubated with BPLER and BPE cells. Uptake was assessed 24 hours later by flow cytometry (FIG. 21C). Data are representative of 3 independent experiments. Cy3 and Alexa647-labeled EpCAM-AsiC was taken up by MB468 and BPLER (EpCAM+ cells) respectively and not by BPE (EpCAM−). MFI of each peak is shown (mock, gray). FIG. 21D depicts graphs of experiments in which, to test for gene silencing, BPLER and BPE were treated with EpCAM-AsiC targeting GFP (4 μM) and compared to Transfection controls using Dharmafect and GFP-siRNA (100 nM). Knockdown was assessed by flow cytometry 72 hours after incubation. Controls were mock and Dhrmafect only treatment (lipid). (n=4).
(§1) For uptake and silencing treatment, cells were plated at low density (10,000 cells/well in 96-well plates) and treated immediately. All AsiC and siRNA treatments were performed in either OptiMEM or WIT medium. Cell viability was assessed by CellTiter-Glo (Promega) or by Trypan-Blue staining in 96-well plates.
Cells were transfected with Dharmafect I per the manufacturer's protocol. See FIG. 9 for all siRNA sequences.

[2] = tested on: subcutaneous tumors; experiment: Tumor accumulation after intravenous injection of fluorescent EpCAM-AsiCs; assay type: in vivo, nude mice; settings: tail vein
Source text: To be clinically useful, EpCAM-AsiCs need to be taken up by disseminated tumor cells. […] The EpCAM-AsiCs were detected around the injection site on day 2, but were only found within the EpCAM+ tumor on day 4.

[3] = tested on: AKT1; experiment: AKT1 mRNA and protein knockdown in breast cancer cell lines; assay type: cell-based, human; settings: basal-A, luminal, basal-B lines, fibroblasts
Experimental: as §1
For flow cytometry, cells were stained as previously described (Yu, F. et al (2007). let-7 Regulates Self Renewal and Tumorigenicity of Breast Cancer Cells. Cell 131, 1109-1123. ), briefly, direct immunostaining of EpCAM and AKT1 was performed using 1:50 dilutions of hAb for 30-60 minutes at 4° C. (BioLegend/BD). Cells were stained in PBS containing 0.5% FCS, 1 mM EDTA, and 25 mM HEPES. Samples were washed twice in the same buffer. Data was acquired using FACS-Canto II (BD Biosciences). Analyses were performed in triplicate and 10,000 gated events/sample were counted. All data analysis was performed using FlowJo (Treestar Inc.).
qRT-PCR analysis was performed as described (Petrocca, F., et al. (2008). E2F1-regulated microRNAs impair TGFbeta-dependent cell-cycle arrest and apoptosis in gastric cancer. Cancer Cell 13, 272-286). Briefly, total RNA was extracted with Trizol (Invitrogen) and cDNA prepared from 1000 ng total RNA using Thermoscript RT kit (Invitrogen) as per the […] (Applied Biosystems) and a BioRad C1000 Thermal Cycler (Biorad). Relative CT values were normalized to GAPDH and converted to a linear scale.

[4] = tested on: EpCAM+ cell lines; experiment: In vitro gene knockdown by AsiC designs; assay type: cell-based, human
[5] = tested on: CD44+CD24low/− and ALDH+ cells; experiment: Proportion of cells with T-IC phenotype; assay type: cell-based, human; settings: basal-A and luminal lines; listed as PLK1 EpCAM-AsiCs
[6] = tested on: Argonaute (AGO); experiment: PLK1 siRNA association with Argonaute (pan-AGO immunoprecipitation, qRT-PCR); assay type: cell-based, human; settings: MDA-MB-468 cells treated 2 days; listed as PLK1 EpCAM-AsiCs
Source text: MB-468 cells, treated with PLK1 EPCAM-AsiC or siRNA for 2 days, were lysed, and cell lysates were immunoprecipitated with pan-AGO antibody or IgG isotype control. The amount of PLK1 siRNA in the immunoprecipitates was quantified by Taqman qRT-PCR, presented as log2 mean with SEM, relative to miR-16. **, P<0.01 by Student's t-test relative to siRNA-treated cells. ND, not detectable. […] This is likely because most RNAs that are taken up by cells are not released from endosomes to the cytosol (A. Wittrup et al., Visualizing lipid-formulated siRNA release from endosomes and target gene knockdown. Nature Biotechnology 2015, in press).
Uptake was clearly detected at 22 hr, but increased greatly after 43 hr. To test whether EpCAM-AsiCs are specifically taken up by EpCAM bright cell lines, the 3′ end of the antisense strand of the AsiC was fluorescently labeled. […] Previous studies have shown that AsiCs are processed within cells by Dicer to release the siRNA from the aptamer (10, 12, 15).

[7] = tested on: breast cancer cell lines; experiment: Sphere (mammosphere) formation assay; assay type: cell-based, human
Experimental: For colony formation assay, 1,000 viable cells were treated for 6 h in round bottom 96-well plates and then transferred to 10-cm plates in serum-containing medium. Medium was replaced every 3 d. After 8-14 d, cells were fixed in methanol (−20 C) and stained with crystal violet. For sphere formation assay, 1,000/ml viable cells were treated for 6 h in round bottom 96-well plates and then cultured in suspension in serum-free DMEM/F12 1:1 (Invitrogen), supplemented with EGF (20 ng/ml, BD Biosciences), B27 (1:50, Invitrogen), 0.4% bovine serum albumin (Sigma) and 4 μg/ml insulin (Sigma). Spheres were counted after 1 or 2 weeks.

[8] = listed as EpCAM-AsiC targeting PLK1

B1: EpCAM-AsiC: EpCAM aptamer-siRNA chimera, siRNA cargo not specified at the place; 2'-fluoropyrimidines, 3'-dTdT (nucleic acid)
sense: GCGACUGGUUACCCGGUCGUUUUGAAGAAGAUCACCCUCCUUATT
antisense: UAAGGAGGGUGAUCUUCUUCATT
modifications: DNA at T, 2'-fluoro at CU, RNA at AG, backbone not given here; further chemistry not fully specified
notes: EpCAM aptamer-siRNA chimera, siRNA cargo not specified at the place; 2'-fluoropyrimidines, 3'-dTdT
eGFP knockdown, BPLER vs BPE [1]: uniform and selective for EpCAM+ cells | tumor accumulation after intravenous injection [2]: did not lead to significant AsiC accumulation within subcutaneous tumors | AKT1 mRNA and protein knockdown across cell lines [3]: uniform and selective for EpCAM+ cells | gene knockdown, EpCAM+ vs EpCAM− cells [4]: selectively knocked down expression in EpCAM+ breast and colon cancer cell lines but not in normal epithelial cells or mesenchymal tumor cells

B2: PLK1 EpCAM-AsiC: EpCAM aptamer linked by U-U-U to PLK1 siRNA sense strand (SEQ ID NO: 1), annealed to antisense strand (SEQ ID NO: 2) (nucleic acid)
sense: B1 sense
antisense: UAAGGAGGGUGAUCUUCUUCATT
modifications: DNA at T, 2'-fluoro at CU, RNA at AG, backbone not given here; EpCAM aptamer fused to sense strand
proportion of cells with T-IC phenotype [5]: reduced the proportion of cells with the phenotype of T-ICs; also recorded: reduced CD44+CD24low and Aldefluor+ cells | PLK1 siRNA bound to Ago / in the RISC [6]: PLK1 siRNA immunoprecipitated with Ago; also recorded: PLK1 siRNA was found in the RISC | sphere/mammosphere formation, EpCAM+ basal-A and luminal lines [7, 8]: specifically inhibited sphere formation in basal A and luminal; also recorded: decreased the number of spheres only in basal A and luminal cells | sphere/mammosphere formation, EpCAM− basal-B lines [7, 8]: had no effect on basal B cells | sphere/mammosphere formation, EpCAM+ basal-A and luminal lines ([7]; listed as PLK1 EpCAM-AsiCs): more strongly inhibited colony and mammosphere formation of EpCAM+ basal-A TNBCs and luminal cell lines than paclitaxel; also recorded: eliminated mammosphere and colony formation; also recorded: more strongly inhibited colony and mammosphere formation of multiple EpCAM+ basal-like TNBCs and a luminal cell line than paclitaxel | sphere/mammosphere formation, EpCAM− basal-B lines ([7]; listed as PLK1 EpCAM-AsiCs): inactive against EpCAM− basal-B TNBCs
